Experimental data from patent US20150132307A1 (Hoffmann-La Roche, published 2015).

T1: Human recombinant soluble TWEAK (Example 6) (human, UniProt O43508 99-249, limits assumed)
T1 sequence: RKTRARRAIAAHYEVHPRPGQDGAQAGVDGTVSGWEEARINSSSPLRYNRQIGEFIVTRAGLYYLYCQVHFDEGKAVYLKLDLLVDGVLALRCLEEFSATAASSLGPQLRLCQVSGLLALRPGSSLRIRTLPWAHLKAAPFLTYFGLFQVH

T2: Biotinylated human soluble TWEAK (amino acids 99-249 of SEQ ID NO: 68) (human, UniProt O43508 99-249, biotinylated)
T2 construct: also called Human TWEAK
T2 sequence: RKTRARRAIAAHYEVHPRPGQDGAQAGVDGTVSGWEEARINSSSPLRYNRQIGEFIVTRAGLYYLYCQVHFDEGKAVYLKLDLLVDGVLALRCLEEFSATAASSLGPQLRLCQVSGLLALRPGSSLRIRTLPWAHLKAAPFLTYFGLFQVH

T3: human Flag-tagged soluble TWEAK (amino acids 106-249) (human, UniProt O43508 106-249)
T3 construct: The sentence gives amino acids 106-249 without naming the entry; also called Human TWEAK; not shown: Flag tag
T3 sequence: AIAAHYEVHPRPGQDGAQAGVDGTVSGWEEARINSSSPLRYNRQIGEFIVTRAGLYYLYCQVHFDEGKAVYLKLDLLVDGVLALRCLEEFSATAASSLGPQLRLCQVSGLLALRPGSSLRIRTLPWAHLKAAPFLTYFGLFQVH

T4: Mouse soluble TWEAK (untagged, Example 5) (mouse, UniProt O54907 105-249, limits assumed)
T4 construct: also called Murine TWEAK
T4 sequence: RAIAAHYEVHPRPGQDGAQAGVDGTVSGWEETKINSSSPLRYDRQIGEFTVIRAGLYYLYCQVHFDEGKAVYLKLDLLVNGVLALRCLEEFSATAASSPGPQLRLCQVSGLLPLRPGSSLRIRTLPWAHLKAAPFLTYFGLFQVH


Assays:
[1] = target: T1, Human recombinant soluble TWEAK …; assay: cell-based or functional assay
[2] = target: T2, Biotinylated human soluble TWEAK (amino …); assay: SPR (Biacore), biotinylated soluble TWEAK on streptavidin chip, 37 C
[3] = target: T3, human Flag-tagged soluble TWEAK (amino …); assay: receptor interaction ELISA: Flag-TWEAK preincubated with antibody, then on coated human Fn14:Fc (competitor m21)
Description: (§1) 96-well Maxisorp® plates (Nunc) were coated with 100 μl 1 μg/ml human Fn14:Fc (extracellular domain of human Fn14 (amino acids 1-75 of SEQ ID NO: 98) fused to Fc portion of human IgG1) in PBS per well for 1.5 h at room temperature and blocked with a solution of 5% FBS in PBS for 30 minutes at room temperature under shaking. […] After washing the Fn14-coated plate once with wash buffer (0.1% Tween® 20 in PBS), 100 μl of the TWEAK-antibody solution were transferred to each well and the plate was incubated for 1 h at room temperature, followed by four washes with wash buffer. Wells were filled with 100 μl of anti-FLAG-HRP detection antibody, diluted 1:5000 in blocking buffer, and incubated for 1 h at room temperature. After four more wash steps, the signal was developed by addition of 100 μl 3,3,5,5-Tetramethylbenzidine (TMB) solution for approximately ten minutes. The reaction was stopped by adding 100 μl of 1 N HCl, and absorbance measured at 450 nm (reference wavelength 620 nm).

[4] = target: T4, Mouse soluble TWEAK (untagged, Example …); assay: receptor interaction ELISA: mouse soluble TWEAK preincubated with antibody, then on coated mouse Fn14:Fc (competitor m22)
Description: Briefly, Maxisorp plates were coated with mouse Fn14:Fc (extracellular domain of mouse Fn14 (amino acids 1-75 of SEQ ID NO: 98) fused to Fc portion of human IgG1) as described above for human Fn14:Fc, followed by blocking and washing. […] After 1 h of incubation at room temperature and four washes, biotinylated anti-mouse TWEAK antibody at 125 ng/ml in blocking buffer was added for 1 h at room temperature, followed by another four wash steps. The TWEAK antibody was detected by incubation with streptavidin-HRP, diluted 1:5000 in blocking buffer, for 30 minutes at room temperature. Signal was developed and absorbance measured as described above.

[5] = target: T2, Biotinylated human soluble TWEAK (amino …); assay: SPR (Biacore), biotinylated soluble TWEAK on streptavidin chip, 25 C
Description: A Biacore 2000 instrument was used with a Biacore streptavidin coated sensor mounted into the system. The system buffer HBS-ET (10 mM HEPES pH 7.4, 150 mM NaCl, 1 mM EDTA, 0.05% Tween® 20) was used at a flow rate of 100 μl/min. The sample buffer was the system buffer. Biotinylated human soluble TWEAK (amino acids 99-249 of SEQ ID NO: 68) and biotinylated murine soluble TWEAK (amino acids 81-225 of SEQ ID NO: 69) was immobilized on different flow cells on the SA sensor at 150 RU each. The flow cell FC1 was used as a blank reference cell. Each antibody was injected into the system as an analyte at 100 nM at 100 μl/min for 2 min association time. The dissociation of the immunecomplexes were monitored for 5 min. The sensor surface was washed with HBS-ET for 10 seconds and regenerated using 2×2 minutes injections with 10 mM glycine pH 2.25. This procedure was done at 25° C. The kinetically rate limiting step of the complex dissociation phase in the interval [240 s-300 s] was taken to calculate the dissociation rate kd [1/s] (Biacore Evaluation Software 4.0). According to the equation t1/2 diss=ln(2)/(60×kd), the half-life of the immunocomplexes in minutes was calculated.

[6] = target: recombinant human IL-17 (Peprotech #200-17) (human, UniProt Q16552 20-155); assay: cell-based or functional assay
recombinant human IL-17 (Peprotech #200-17), sequence (Q16552 20-155 limits assumed): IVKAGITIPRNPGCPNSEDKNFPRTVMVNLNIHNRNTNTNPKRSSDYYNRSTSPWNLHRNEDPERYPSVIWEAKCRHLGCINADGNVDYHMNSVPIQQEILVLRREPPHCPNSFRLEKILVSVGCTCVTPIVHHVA

[7] = target: T1, Human recombinant soluble TWEAK …; assay: cell-based or functional assay; remark: listed apart in the source
[8] = target: T3, human Flag-tagged soluble TWEAK (amino …); assay: receptor interaction ELISA: Flag-TWEAK 2.5 ng/ml preincubated with antibody, then on coated human Fn14:Fc (competitor m21)
Description: as §1

| Binder | Inhibition of IL8-Secretion [ng/ml] (A375 cells) [1] [ng/mL] | Biacore t/2 diss. [min] 37° C. human [2] [min] | IC50 [3] [ng/mL] | IC50 [4] [ng/mL] | Biacore t/2 diss. [min] 25° C. human [5] [min] | IL-6 IC50 [nM] per valency (IL-17 induced cytokine production, HFLS-RA) [6] [nM] | IL-8 IC50 [nM] per valency (IL-17 induced cytokine production, HFLS-RA) [6] [nM] | Inhibition of IL-8 Secretion IC50 [ng/ml] (A375 cells) [7] [ng/mL] | IC50 [8] [ng/mL] |
| --- | --- | --- | --- | --- | --- | --- | --- | --- | --- |
| Humanized <TWEAK> 305- antibody 28 (antibody, V domains shown) VH: EVQLLESGGGLVQPGGSLTLSCAASGFDFSTYYMSWVRQAPGKGLEWVSTVYVRQGTTYYASWLNGRFTISRDNSKNTLYLQMNSLRAEDTAVYYCAKGGYNYDDAFVIWGQGTLVTVSS VL: DIQMTQSPSSVSASVGDRVTITCQASQNIYSNLAWYQQKPGKAPKLLIYTASYLASGVPSRFSGSGSGTDYTLTISSLQPEDFATYYCQTAYYNSRPDTVAFGGGTKVEIK | 165 | 115 | 1.5 | 6.5 | 87 |  |  |  |  |
| Humanized <TWEAK> 305- antibody 30 (antibody, V domains shown) VH: EVQLLESGGGLVQPGGSLRLSCAASGFDFSTYYMSWVRQAPGKGLEWVSTVYVRQGTTYYASWLNGRFTISRDNSKNTLYLQMNSLTAEDTAVYYCAKGGYNYDDAFVIWGQGTLVTVSS VL: DIQMTQSPSSVSASVGDRVTITCQASQNIYSNLAWYQQKPGKAPKLLIYTASYLASGVPSRFSGSGSGTDFTLTISSLQPEDFATYYCQTAYYNSRPDTVAFGGGTKVEIK | 207 | 45 | 2.3 | 7.6 | 50 |  |  |  |  |
| Humanized <TWEAK> 305- antibody 31 (antibody, V domains shown) VH: EVQLLESGGGLVQPGGSLTLSCAASGFDFSTYYMSWVRQAPGKGLEWVSTVYVRQGTTYYASWLNGRFTISRDNSKNTLYLQMNSLRAEDTAVYYCAKGGYNYDDAFVIWGQGTLVTVSS VL: AIRMTQSPSSFSASTGDRVTITCQASQNIYSNLAWYQQKPGKAPKLLIYTASYLASGVPSRFSGSGSGTDYTLTISCLQSEDFATYYCQTAYYNSRPDTVAFGGGTKVEIK | 94 | 151 | 1.7 | 7.1 | 115 |  |  |  |  |
| Humanized <TWEAK> 305- antibody 29 (antibody, V domains shown) VH: EVQLLESGGGLVQPGGSLRLSCAASGFDFSTYYMSWVRQAPGKGLEWVSTVYVRQGTTYYASWLNGRFTISRDNSKNTLDLQMNSLRAEDTAVYYCAKGGYNYDDAFVIWGQGTLVTVSS VL: DIQMTQSPSSVSASVGDRVTITCQASQNIYSNLAWYQQKPGKAPKLLIYTASYLASGVPSRFSGSGSGTDYTLTISSLQPEDFATYYCQTAYYNSRPDTVAFGGGTKVEIK | 78 | 195 | 1.8 | 5.7 | 146 |  |  |  |  |
| Bispecific <Tweak-IL-17> #21 antibody (bispecific antibody, human IgG4 S228P, kappa) heavy 1: EVQLVESGGGLVQPGGSLRLSCAASGFSLDSYGVHWVRQAPGKGLEWVSVIWSDGTTTYNSALKSRFTISRDNSKNTLYLQMNSLRAEDTAVYYCARDTHYRLYYYAMDYWGQGTTVTVSSASTKGPSVFPLAPCSRSTSESTAALGCLVKDYFPEPVTVSWNSGALTSGVHTFPAVLQSSGLYSLSSVVTVPSSSLGTKTYTCNVDHKPSNTKVDKRVESKYGPPCPPCPAPEFEGGPSVFLFPPKPKDTLMISRTPEVTCVVVDVSQEDPEVQFNWYVDGVEVHNAKTKPREEQFNSTYRVVSVLTVLHQDWLNGKEYKCKVSNKGLPSSIEKTISKAKGQPREPQVCTLPPSQEEMTKNQVSLSCAVKGFYPSDIAVEWESNGQPENNYKTTPPVLDSDGSFFLVSRLTVDKSRWQEGNVFSCSVMHEALHNHYTQKSLSLSLGK heavy 2: not shown light: DIVMTQSPLSLPVTPGEPASISCRSSQSLVHSNGDTYFHWYLQKPGQSPQLLIYKVSNRFSGVPDRFSGSGSGTDFTLKISRVEAEDVGVYYCSQTTHAPFTFGQGTKLEIKRTVAAPSVFIFPPSDEQLKSGTASVVCLLNNFYPREAKVQWKVDNALQSGNSQESVTEQDSKDSTYSLSSTLTLSKADYEKHKVYACEVTHQGLSSPVTKSFNRGEC |  |  |  |  |  | 2.71 | 1.71 |  |  |
| <TWEAK> 305 (rabbit) (antibody, V domains shown, Rabbit parent antibody) VH: QEQLVESGGGLVQPGGSLTLSCKASGFDFSTYYMSWVRQAPGKGLEWIGTVYVRQGTTYYASWLNGRFTISSDNAQNTVDLKMNSLTAADTATYFCAKGGYNYDDAFVIWGPGTLVTVSF VL: AIEMTQTPFSVSAAVGGTVTINCQASQNIYSNLAWYQQKPGQPPKLLMYTASYLASGVPSRFKGSGSRTEYTLTISGVQCADAATYYCQTAYYNSRPDTVAFGGGTEVVVK |  |  |  |  |  |  |  | 99 | 2.5 |

Continued, values first:

| Inhibition of IL8-Secretion [ng/ml] (A375 cells) [1] [ng/mL] | Biacore t/2 diss. [min] 37° C. human [2] [min] | IC50 [3] [ng/mL] | IC50 [4] [ng/mL] | Biacore t/2 diss. [min] 25° C. human [5] [min] | IL-6 IC50 [nM] per valency (IL-17 induced cytokine production, HFLS-RA) [6] [nM] | IL-8 IC50 [nM] per valency (IL-17 induced cytokine production, HFLS-RA) [6] [nM] | Inhibition of IL-8 Secretion IC50 [ng/ml] (A375 cells) [7] [ng/mL] | IC50 [8] [ng/mL] | Binder |
| --- | --- | --- | --- | --- | --- | --- | --- | --- | --- |
| 26 | 99 | 1.7 | 6.7 | 127 |  |  |  |  | Humanized <TWEAK> 305- antibody 33 (antibody, V domains shown) VH: QVQLVQSGAEVKKPGSSVKVSCKASGFDFSTYYMSWVRQAPGQGLEWMGTVYVRQGTTYYASWLNGRVTITADESTSTAYMELSSLRSEDTAVYYCARGGYNYDDAFVIWGQGTLVTVSS VL: AIRMTQSPSSFSASTGDRVTITCQASQNIYSNLAWYQQKPGKAPKLLIYTASYLASGVPSRFSGSGSGTDYTLTISCLQSEDFATYYCQTAYYNSRPDTVAFGGGTKVEIK |
| 24 | 185 | 1.9 | 5.9 | 158 |  |  |  |  | Humanized <TWEAK> 305- antibody 34 (antibody, V domains shown) VH: EVQLLESGGGLVQPGGSLRLSCAASGFDFSTYYMSWVRQAPGKGLEWVSTVYVRQGTTYYASWLNGRFTISRDNSKNTLYLQMNSLRAEDTAVYYCAKGGYNYDDAFVIWGQGTLVTVSS VL: AIRMTQSPSSFSASTGDRVTITCQASQNIYSNLAWYQQKPGKAPKLLIYTASYLASGVPSRFSGSGSGTDYTLTISCLQSEDFATYYCQTAYYNSRPDTVAFGGGTKVEIK |
| 134 | 50 | 1.5 | 5.4 | 67 |  |  |  |  | Humanized <TWEAK> 305- antibody 32 (antibody, V domains shown) VH: EVQLLESGGGLVQPGGSLRLSCAASGFDFSTYYMSWVRQAPGKGLEWVSTVYVRQGTTYYASWLNGRFTISRDNSKNTLDLQMNSLRAEDTAVYYCAKGGYNYDDAFVIWGQGTLVTVSS VL: DIQMTQSPSTLSASVGDRVTITCQASQNIYSNLAWYQQKPGKAPKLLIYTASYLASGVPSRFSGSGSGTEFTLTISSLQPDDFATYYCQTAYYNSRPDTVAFGGGTKVEIK |
